{"source": "patent US20210388087A1", "about": "(Chugai, published 2021)", "binders": {"B1": {"name": "GPC3 ERY22-B (bispecific antibody, human IgG1, kappa, L234A L235A, N297A)", "heavy 1": "DIVMTQSPLSLPVTPGEPASISCRSSQSLVHSNRNTYLHWYQQKPGQAPRLLIYKVSNRFSGVPDRFSGSGSGTDFTLKISRVEAEDVGVYYCSQNTHVPPTFGQGTKLEIKSSASTKGPSVFPLAPSSKSTSGGTAALGCLVKDYFPEPVTVSWNSGALTSGVHTFPAVLQSSGLYSLSSVVTVPSSSLGTQTYICNVNHKPSNTKVDKKVEPKSCDKTHTCPPCPAPEAAGGPSVFLFPPKPKDTLMISRTPEVTCVVVDVSHEDPEVKFNWYVDGVEVHNAKTKPREEQYASTYRVVSVLTVLHQDWLNGKEYKCKVSNKALPAPIEKTISKAKGQPREPQVCTLPPSRDELTKNQVSLWCLVKGFYPSDIAVEWESNGQPENNYKTTPPVLDSDGSFFLYSKLTVDKSRWQQGNVFSCSVMHEALHNHYTQKSLSLSPHHHHHHHH", "light 1": "QVQLVQSGAEVKKPGASVKVSCKASGYTFTDYEMHWIRQPPGQGLEWIGAIDPKTGDTAYSQKFKGRVTLTADKSTSTAYMELSSLTSEDTAVYYCTRFYSYTYWGQGTLVTVSSASVAAPSVFIFPPSDEQLKSGTASVVCLLNNFYPREAKVQWKVDNALQSGNSQESVTEQDSKDSTYSLSSTLTLSKADYEKHKVYACEVTHQGLSSPVTKSFNRGEC", "heavy 2": "QVQLQQWGAGLLKPSETLSLTCAVYGGSFSGYYWSWIRQSPEKGLEWIGEINHGGYVTYNPSLESRVTISVDTSKNQFSLKLSSVTAADTAVYYCARDYGPGNYDWYFDLWGRGTLVTVSSASTKGPSVFPLAPSSKSTSGGTAALGCLVKDYFPEPVTVSWNSGALTSGVHTFPAVLQSSGLYSLSSVVTVPSSSLGTQTYICNVNHKPSNTKVDKKVEPKSCDKTHTCPPCPAPEAAGGPSVFLFPPKPKDTLMISRTPEVTCVVVDVSHEDPEVKFNWYVDGVEVHNAKTKPREEQYASTYRVVSVLTVLHQDWLNGKEYKCKVSNKALPAPIEKTISKAKGQPREPQVYTLPPSRCELTKNQVSLSCAVKGFYPSDIAVEWESNGQPENNYKTTPPVLDSDGSFFLVSKLTVDKSRWQQGNVFSCSVMHEALHNHYTQKSLSLSP", "light 2": "not shown"}, "B2": {"name": "GPC3 ERY22-dBBDu_183/L063 (bispecific antibody, human IgG1, kappa, L234A L235A, N297A)", "heavy 1": "B1 heavy 1", "light 1": "B1 light 1", "heavy 2": "QVQLVESGGGLVQPGRSLRLSCAASGFTFSNAWMHWVRQAPGKGLEWVAQIKDKGNAYAAYYAPSVKGRFTISRDDSKNSIYLQMNSLKTEDTAVYYCHYVHYASASTVLPAFGVDAWGQGTTVTVSSASTKGPSVFPLAPSSKSTSGGTAALGCLVKDYFPEPVTVSWNSGALTSGVHTFPAVLQSSGLYSLSSVVTVPSSSLGTQTYICNVNHKPSNTKVDKKVEPKSCDKTHTCPPCPAPEAAGGPSVFLFPPKPKDTLMISRTPEVTCVVVDVSHEDPEVKFNWYVDGVEVHNAKTKPREEQYASTYRVVSVLTVLHQDWLNGKEYKCKVSNKALPAPIEKTISKAKGQPREPQVYTLPPSRCELTKNQVSLSCAVKGFYPSDIAVEWESNGQPENNYKTTPPVLDSDGSFFLVSKLTVDKSRWQQGNVFSCSVMHEALHNHYTQKSLSLSPDYKDDDDK", "light 2": "DIVMTQSPLSLPVTPGEPASISCRSSQELVHTNRHTYLHWYQQKPGQAPRLLIYKVSNRFPGVPDRFSGSGSGTDFTLKISRVEAEDVGVYYCAQGTQVPFTFGQGTKLEIKRTVAAPSVFIFPPSDEQLKSGTASVVCLLNNFYPREAKVQWKVDNALQSGNSQESVTEQDSKDSTYSLSSTLTLSKADYEKHKVYACEVTHQGLSSPVTKSFNRGEC"}, "B3": {"name": "dBBDu183H V100cH / dBBDu072L (antibody, name in Kabat numbering, V domains shown)", "VH": "QVQLVESGGGLVQPGRSLRLSCAASGFTFSNAWMHWVRQAPGKGLEWVAQIKDKGNAYAAYYAPSVKGRFTISRDDSKNSIYLQMNSLKTEDTAVYYCHYVHYASASTHLPAFGVDAWGQGTTVTVSS", "VL": "DIVMTQSPLSLPVTPGEPASISCQASQELVHMNRNTYLHWYQQKPGQAPRLLIYKVSNRFPGVPDRFSGSGSGTDFTLKISRVEAEDVGVYYCAQGTSVPFTFGQGTKLEIK", "notes": "as m1, one VH change"}, "B4": {"name": "dBBDu183H Y94Q / dBBDu072L (antibody, name in Kabat numbering, V domains shown)", "VH": "B3 VH with Y100Q, H109V", "VL": "B3 VL", "notes": "as m1, one VH change"}, "B5": {"name": "dBBDu183H Y94T / dBBDu072L (antibody, name in Kabat numbering, V domains shown)", "VH": "B3 VH with Y100T, H109V", "VL": "B3 VL", "notes": "as m1, one VH change"}, "B6": {"name": "dBBDu183H V100cY / dBBDu072L (antibody, name in Kabat numbering, V domains shown)", "VH": "B3 VH with H109Y", "VL": "B3 VL", "notes": "as m1, one VH change"}, "B7": {"name": "dBBDu183H V100cQ / dBBDu072L (antibody, name in Kabat numbering, V domains shown)", "VH": "B3 VH with H109Q", "VL": "B3 VL", "notes": "as m1, one VH change"}, "B8": {"name": "dBBDu183H V100cR / dBBDu072L (antibody, name in Kabat numbering, V domains shown)", "VH": "B3 VH with H109R", "VL": "B3 VL", "notes": "as m1, one VH change"}, "B9": {"name": "dBBDu183H Y94S / dBBDu072L (antibody, name in Kabat numbering, V domains shown)", "VH": "B3 VH with Y100S, H109V", "VL": "B3 VL", "notes": "as m1, one VH change"}, "B10": {"name": "dBBDu183H V100iT / dBBDu072L (antibody, name in Kabat numbering, V domains shown)", "VH": "B3 VH with H109V, V115T", "VL": "B3 VL", "notes": "as m1, one VH change"}, "B11": {"name": "dBBDu183H V100cW / dBBDu072L (antibody, name in Kabat numbering, V domains shown)", "VH": "B3 VH with H109W", "VL": "B3 VL", "notes": "as m1, one VH change"}, "B12": {"name": "dBBDu183H V100cK / dBBDu072L (antibody, name in Kabat numbering, V domains shown)", "VH": "B3 VH with H109K", "VL": "B3 VL", "notes": "as m1, one VH change"}, "B13": {"name": "dBBDu183H Y97F / dBBDu072L (antibody, name in Kabat numbering, V domains shown)", "VH": "B3 VH with Y103F, H109V", "VL": "B3 VL", "notes": "as m1, one VH change"}, "B14": {"name": "dBBDu183H V100cT / dBBDu072L (antibody, name in Kabat numbering, V domains shown)", "VH": "B3 VH with H109T", "VL": "B3 VL", "notes": "as m1, one VH change"}, "B15": {"name": "dBBDu183H V100cS / dBBDu072L (antibody, name in Kabat numbering, V domains shown)", "VH": "B3 VH with H109S", "VL": "B3 VL", "notes": "as m1, one VH change"}, "B16": {"name": "dBBDu183H Y94N / dBBDu072L (antibody, name in Kabat numbering, V domains shown)", "VH": "B3 VH with Y100N, H109V", "VL": "B3 VL", "notes": "as m1, one VH change"}, "B17": {"name": "dBBDu183H Y97W / dBBDu072L (antibody, name in Kabat numbering, V domains shown)", "VH": "B3 VH with Y103W, H109V", "VL": "B3 VL", "notes": "as m1, one VH change"}, "B18": {"name": "dBBDu183H Y94F / dBBDu072L (antibody, name in Kabat numbering, V domains shown)", "VH": "B3 VH with Y100F, H109V", "VL": "B3 VL", "notes": "as m1, one VH change"}, "B19": {"name": "dBBDu183H Y94D / dBBDu072L (antibody, name in Kabat numbering, V domains shown)", "VH": "B3 VH with Y100D, H109V", "VL": "B3 VL", "notes": "as m1, one VH change"}}, "note": "Residue numbers refer to the chain shown, from its start. Names and notes keep the numbering of the source.", "data": [{"biological_target": "human CD137 on HDLM-2 cells (human, UniProt Q07011 24-255)", "sequence (Q07011 24-255)": "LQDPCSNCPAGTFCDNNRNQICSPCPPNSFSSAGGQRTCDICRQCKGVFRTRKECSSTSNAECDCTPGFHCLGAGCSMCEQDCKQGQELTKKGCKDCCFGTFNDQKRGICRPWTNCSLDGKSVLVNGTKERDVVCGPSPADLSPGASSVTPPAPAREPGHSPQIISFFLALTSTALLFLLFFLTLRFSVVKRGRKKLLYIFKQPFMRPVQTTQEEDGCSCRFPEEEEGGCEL", "experiment": "cell-based or functional assay", "units": {"Agonistic activity compared to B, antibody 6 ug/mL": "%", "Agonistic activity compared to B, antibody 30 ug/mL": "%", "Agonistic activity compared to Ctrl, antibody 6 ug/mL": "%", "Agonistic activity compared to Ctrl, antibody 30 ug/mL": "%", "hIL-6 (pg/mL), antibody 6 ug/mL": "pg/mL", "hIL-6 (pg/mL), antibody 30 ug/mL": "pg/mL"}, "values": [{"binder": "B1", "Agonistic activity compared to B, antibody 6 ug/mL": 100, "Agonistic activity compared to B, antibody 30 ug/mL": 100, "Agonistic activity compared to Ctrl, antibody 6 ug/mL": 347, "Agonistic activity compared to Ctrl, antibody 30 ug/mL": 380, "hIL-6 (pg/mL), antibody 6 ug/mL": 4520, "hIL-6 (pg/mL), antibody 30 ug/mL": 4340}, {"binder": "B2", "Agonistic activity compared to B, antibody 6 ug/mL": -1.27, "Agonistic activity compared to B, antibody 30 ug/mL": 6.51, "Agonistic activity compared to Ctrl, antibody 6 ug/mL": -4.41, "Agonistic activity compared to Ctrl, antibody 30 ug/mL": 24.7, "hIL-6 (pg/mL), antibody 6 ug/mL": 968, "hIL-6 (pg/mL), antibody 30 ug/mL": 1130}]}, {"biological_target": "T1, Human CD137 ECD (human)", "T1 construct": "also called 4-1BB", "T1 sequence (chain, as listed by the source limits assumed)": "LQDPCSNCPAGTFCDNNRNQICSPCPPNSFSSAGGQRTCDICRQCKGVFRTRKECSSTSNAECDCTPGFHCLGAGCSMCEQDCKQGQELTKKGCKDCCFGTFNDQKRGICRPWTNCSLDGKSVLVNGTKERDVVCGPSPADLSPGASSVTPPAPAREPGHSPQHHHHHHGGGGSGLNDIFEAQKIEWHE", "experiment": "SPR, vs parent H183/L072", "units": {"fold change of affinity": "fold"}, "values": [{"binder": "B3", "fold change of affinity": 0.5}, {"binder": "B4", "fold change of affinity": 0.3}, {"binder": "B5", "fold change of affinity": 0.6}, {"binder": "B6", "fold change of affinity": 0.6}, {"binder": "B7", "fold change of affinity": 1.4}, {"binder": "B8", "fold change of affinity": 0.7}, {"binder": "B9", "fold change of affinity": 1.4}, {"binder": "B10", "fold change of affinity": 0.2}, {"binder": "B11", "fold change of affinity": 0.6}, {"binder": "B12", "fold change of affinity": 0.5}, {"binder": "B13", "fold change of affinity": 1.8}, {"binder": "B14", "fold change of affinity": 0.5}, {"binder": "B15", "fold change of affinity": 0.5}, {"binder": "B16", "fold change of affinity": 0.1}, {"binder": "B17", "fold change of affinity": 0.8}, {"binder": "B18", "fold change of affinity": 1.8}, {"binder": "B19", "fold change of affinity": 0.2}]}]}
